Molecular target: recombinant TIMP-3 (human or mouse; Table 2 does not say which)
Assay: AlphaScreen, biotinylated TIMP-3, Assay 1

recombinant TIMP-3 (human or mouse; Table 2 does not say which), sequence (P35625 24-211): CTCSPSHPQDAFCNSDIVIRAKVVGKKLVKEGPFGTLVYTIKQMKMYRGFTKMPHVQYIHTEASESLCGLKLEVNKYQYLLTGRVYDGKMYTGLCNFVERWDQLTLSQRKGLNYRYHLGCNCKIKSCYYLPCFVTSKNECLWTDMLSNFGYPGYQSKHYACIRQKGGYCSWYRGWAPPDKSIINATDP

total signal (cps): 2200 cps
Binder: CNASSQFLCSSGRCVAEALLCNGQDDCGDSSDERGCHINE [LRP-1 peptide LA20]
